{"source": "patent US20040006022A1", "about": "(Harvard, published 2004)", "molecules": {"B1": {"name": "synthetic 15-mer peptide SEQ ID NO: 6, AEKYAAAAAAKAAAA (peptide)", "peptide": "AEKYAAAAAAKAAAA"}, "B2": {"name": "synthetic 15-mer peptide SEQ ID NO: 11, AEEYAAAAAAKAAAA (peptide)", "peptide": "AEEYAAAAAAKAAAA"}, "B3": {"name": "synthetic 15-mer peptide SEQ ID NO: 16, EAAYAAAAAAKAAAA (peptide)", "peptide": "EAAYAAAAAAKAAAA"}, "B4": {"name": "synthetic 15-mer peptide SEQ ID NO: 17, EKKYAAAAAAKAAAA (peptide)", "peptide": "EKKYAAAAAAKAAAA"}, "B5": {"name": "synthetic 15-mer peptide SEQ ID NO: 18, EAKYAAAAAAKAAAA (peptide)", "peptide": "EAKYAAAAAAKAAAA"}, "B6": {"name": "synthetic 15-mer peptide SEQ ID NO: 22, AKKYAEAAAAAAAAA (peptide)", "peptide": "AKKYAEAAAAAAAAA"}, "B7": {"name": "synthetic 15-mer peptide SEQ ID NO: 23, AEAYKAAAAAAAAAA (peptide)", "peptide": "AEAYKAAAAAAAAAA"}, "B8": {"name": "synthetic 15-mer peptide SEQ ID NO: 27, EKAYAAAAAAAAAAA (peptide)", "peptide": "EKAYAAAAAAAAAAA"}, "B9": {"name": "synthetic 15-mer peptide SEQ ID NO: 28, AAKYEAAAAAAAAAA (peptide)", "peptide": "AAKYEAAAAAAAAAA"}, "B10": {"name": "synthetic 15-mer peptide SEQ ID NO: 33, AEKAYAAAAAAAAAA (peptide)", "peptide": "AEKAYAAAAAAAAAA"}, "B11": {"name": "synthetic 15-mer peptide SEQ ID NO: 8, AKKYAAAAAAKAAAA (peptide)", "peptide": "AKKYAAAAAAKAAAA"}, "B12": {"name": "synthetic 15-mer peptide SEQ ID NO: 15, AAKYAEAAAAKAAAA (peptide)", "peptide": "AAKYAEAAAAKAAAA", "notes": "also called peptide 15"}, "B13": {"name": "synthetic 15-mer peptide SEQ ID NO: 20, AKEYAAAAAAAAAAA (peptide)", "peptide": "AKEYAAAAAAAAAAA"}, "B14": {"name": "synthetic 15-mer peptide SEQ ID NO: 26, AAEYKAAAAAAAAAA (peptide)", "peptide": "AAEYKAAAAAAAAAA"}, "B15": {"name": "collagen II (CII) peptide 261-273, AGFKGEQGPKGEP (peptide)", "peptide": "AGFKGEQGPKGEP"}}, "key": {"[1]": {"biological_target": "HLA-DR2 purified from human homozygous EBV-transformed B cell lines (human)", "test": "size-exclusion column of YEAK incubated with an excess of HLA-DR purified from B cell lines"}, "[2]": {"biological_target": "HLA-DR4 purified from human homozygous EBV-transformed B cell lines (human)", "test": "size-exclusion column of YEAK incubated with an excess of HLA-DR purified from B cell lines"}, "[3]": {"biological_target": "HLA-DR1 purified from human homozygous EBV-transformed B cell lines (human)", "test": "size-exclusion column of YEAK incubated with an excess of HLA-DR purified from B cell lines"}, "[4]": {"biological_target": "recombinant water-soluble 'empty' HLA-DR1 (DRB1*0101) (human)", "test": "competitive binding ELISA on recombinant HLA-DR1; competitor biotinylated YEAK"}, "[5]": {"biological_target": "recombinant water-soluble 'empty' HLA-DR4 (DRB1*0401) (human)"}, "[6]": {"biological_target": "recombinant water-soluble 'empty' HLA-DR1 (DRB1*0101) (human)", "test": "incubation 1:1 with water-soluble HLA-DR, Centricon ultrafiltration, acid extraction, amino acid analysis"}, "[7]": {"biological_target": "recombinant water-soluble 'empty' HLA-DR4 (DRB1*0401) (human)", "test": "incubation 1:1 with water-soluble HLA-DR, Centricon ultrafiltration, acid extraction, amino acid analysis"}, "[8]": {"biological_target": "recombinant water-soluble 'empty' HLA-DR2 (DRB1*1501) (human)", "test": "incubation 1:1 with water-soluble HLA-DR, Centricon ultrafiltration, acid extraction, amino acid analysis"}, "[9]": {"biological_target": "HLA-DR4 on L fibroblasts transfected with HLA-DR4 (human)", "test": "cell-based or functional assay"}, "[10]": {"biological_target": "T1, recombinant water-soluble 'empty' HLA-DR4 (DRB1*0401) (human)", "T1 construct": "extracellular domain; extracellular domain is inferred from 'water-soluble'", "test": "competitive binding ELISA on recombinant HLA-DR4; competitor biotinylated YEAK"}, "[11]": {"biological_target": "HLA-DR1 on L fibroblasts transfected with HLA-DR1 (L57.23) (human)", "test": "cell-based or functional assay"}, "[12]": {"biological_target": "T1, recombinant water-soluble 'empty' …", "test": "competitive binding ELISA; competitors biotinylated Multipin peptides"}, "[13]": {"biological_target": "T2, recombinant water-soluble 'empty' HLA-DR1 (DRB1*0101) (human)", "T2 construct": "extracellular domain", "test": "competitive binding ELISA; competitors biotinylated Multipin peptides"}}, "note": "Like-named read-outs stand apart in the source and are kept apart here.", "data": [{"molecule": "heteropolymer YEAK (Copolymer 1), poly(Y,E,A,K)", "values": [{"measurement": "percent of YEAK at the lower molecular weight position of control (unbound) YEAK", "setting": "[1]", "value": "< 10", "unit": "%"}, {"measurement": "percent of YEAK at the lower molecular weight position of control (unbound) YEAK", "setting": "[2]", "value": "< 10", "unit": "%"}, {"measurement": "percent of YEAK at the lower molecular weight position of control (unbound) YEAK", "setting": "[3]", "value": "< 10", "unit": "%"}, {"measurement": "affinity determined by competition", "setting": "[4]", "value": 8, "unit": "µM"}, {"measurement": "affinity determined by competition", "setting": "[5]", "value": 2.5, "unit": "µM"}, {"measurement": "percent of added YEAK in the bound fraction", "setting": "[6]", "value": "> 95", "unit": "%"}, {"measurement": "percent of added YEAK in the bound fraction", "setting": "[7]", "value": "> 95", "unit": "%"}, {"measurement": "percent of added YEAK in the bound fraction", "setting": "[8]", "value": 80, "unit": "%"}]}, {"molecule": "B1", "values": [{"measurement": "inhibition of the DR4 3838 T cell clone (IL-2 secretion)", "setting": "[9]", "value": "> 80", "unit": "%"}]}, {"molecule": "B2", "values": [{"measurement": "inhibition of the DR4 3838 T cell clone (IL-2 secretion)", "setting": "[9]", "value": "> 80", "unit": "%"}]}, {"molecule": "B3", "values": [{"measurement": "inhibition of the DR4 3838 T cell clone (IL-2 secretion)", "setting": "[9]", "value": "> 80", "unit": "%"}, {"measurement": "inhibition of the DR4 D3 T cell clone (IL-2 secretion)", "setting": "[9]", "value": "> 80", "unit": "%"}]}, {"molecule": "B4", "values": [{"measurement": "inhibition of the DR4 3838 T cell clone (IL-2 secretion)", "setting": "[9]", "value": "> 80", "unit": "%"}]}, {"molecule": "B5", "values": [{"measurement": "affinity determined by competition", "setting": "[10]", "value": 3, "unit": "µM"}, {"measurement": "inhibition of the DR4 D3 T cell clone (IL-2 secretion)", "setting": "[9]", "value": "> 80", "unit": "%"}]}, {"molecule": "B6", "values": [{"measurement": "inhibition of the DR4 3838 T cell clone (IL-2 secretion)", "setting": "[9]", "value": "> 80", "unit": "%"}]}, {"molecule": "B7", "values": [{"measurement": "inhibition of the DR4 3838 T cell clone (IL-2 secretion)", "setting": "[9]", "value": "> 80", "unit": "%"}]}, {"molecule": "B8", "values": [{"measurement": "inhibition of the DR4 3838 T cell clone (IL-2 secretion)", "setting": "[9]", "value": "> 80", "unit": "%"}, {"measurement": "inhibition of the DR4 D3 T cell clone (IL-2 secretion)", "setting": "[9]", "value": "> 80", "unit": "%"}, {"measurement": "inhibition of the response of 19.3 T cells (IL-2 secretion)", "setting": "[11]", "value": "~100", "unit": "%"}]}, {"molecule": "B9", "values": [{"measurement": "inhibition of the DR4 3838 T cell clone (IL-2 secretion)", "setting": "[9]", "value": "> 80", "unit": "%"}]}, {"molecule": "B10", "values": [{"measurement": "inhibition of the DR4 3838 T cell clone (IL-2 secretion)", "setting": "[9]", "value": "> 80", "unit": "%"}]}, {"molecule": "B11", "values": [{"measurement": "inhibition of the DR4 D3 T cell clone (IL-2 secretion)", "setting": "[9]", "value": "> 80", "unit": "%"}]}, {"molecule": "B12", "values": [{"measurement": "affinity determined by competition", "setting": "[10]", "value": "< 1", "unit": "µM"}, {"measurement": "inhibition of the DR4 D3 T cell clone (IL-2 secretion)", "setting": "[9]", "value": "> 80", "unit": "%"}, {"measurement": "inhibition of the response of 19.3 T cells (IL-2 secretion)", "setting": "[11]", "value": "~100", "unit": "%"}]}, {"molecule": "B13", "values": [{"measurement": "inhibition of the response of 19.3 T cells (IL-2 secretion)", "setting": "[11]", "value": "~100", "unit": "%"}]}, {"molecule": "B14", "values": [{"measurement": "inhibition of the response of 19.3 T cells (IL-2 secretion)", "setting": "[11]", "value": "~100", "unit": "%"}]}, {"molecule": "B15", "values": [{"measurement": "binding result", "setting": "[12]", "value": "binds"}, {"measurement": "binding result", "setting": "[13]", "value": "binds"}]}]}
